From patent US8603473B2

Molecular target: bovine submaxillary mucin, a source of the TAG-72 antigen (bovine)
Test: binding activity of the Chx-DTPA conjugate; assay not given

Substance: HuCC49 CH2 domain-deleted sc(Fv)2 tetravalent antibody conjugated with the chelator Chx-DTPA
- avidity against conjugated control parent huCC49: 5 to 6 fold
